Measurements as given in US20190161525A1 (NATIONAL CHENG KUNG UNIVERSITY, published 2019).

Biological target: the molecule itself
Experiment: self-polymerization in PBS, reducing SDS-PAGE and Western blot

B1: Zfra1-31 (full-length zinc finger-like protein that regulates apoptosis, synthetic peptide) (peptide)
peptide: MSSRRSSSCKYCEQDFRAHTQKNAATPFLAN
notes: also called Zfra peptide; full-length Zfra
B1: binds.
